Laboratory results reported in patent EP3330286A1.

How the values were obtained:
Test in all cases: indirect ELISA, antigen coated, negative control
[1] = target: MPB70 recombinant protein (Mycobacterium bovis) (UniProt P0A669)
[2] = target: MPB83 recombinant protein (Mycobacterium bovis) (UniProt P0CAX7)
[3] = target: bovine tuberculin purified protein derivative (PPDb)
[4] = target: mixture of MPB70 and MPB83 recombinant proteins
[5] = target: p10 protein (ESAT-6) (Mycobacterium bovis) (UniProt P0A565)
[6] = target: p22 immunogenic composition

Sequence of UniProt P0CAX7 (P0CAX7 25-220 limits assumed): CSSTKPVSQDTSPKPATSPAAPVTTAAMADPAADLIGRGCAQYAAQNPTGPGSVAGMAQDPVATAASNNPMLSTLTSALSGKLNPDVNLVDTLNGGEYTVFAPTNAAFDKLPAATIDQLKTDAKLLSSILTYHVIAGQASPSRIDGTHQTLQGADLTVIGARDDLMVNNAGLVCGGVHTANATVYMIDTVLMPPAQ
Sequence of UniProt P0A565 (P0A565 2-95 limits assumed): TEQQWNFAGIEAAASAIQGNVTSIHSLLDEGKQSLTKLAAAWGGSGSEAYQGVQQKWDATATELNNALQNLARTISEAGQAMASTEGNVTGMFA
Sequence of UniProt P0A669 (P0A669 31-193 limits assumed): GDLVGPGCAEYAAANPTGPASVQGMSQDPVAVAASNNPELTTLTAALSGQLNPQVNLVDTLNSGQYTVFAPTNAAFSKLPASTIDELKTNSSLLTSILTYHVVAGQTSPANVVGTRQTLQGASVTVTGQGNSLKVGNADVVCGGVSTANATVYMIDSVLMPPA

## Control -
[1]
  optical density: 0.08 OD
[2]
  optical density: 0.07 OD
[3]
  optical density: 0.06 OD
[4]
  optical density: 0.07 OD
[5]
  optical density: 0.06 OD
[6]
  optical density: 0.07 OD
